Entries after “also recorded” stand apart in the source; their conditions may differ. Where two headings read alike, the source gives them in different places. Where a SMILES comes first, the peptide text is derived from it. Where no end group is shown, it is not given here.
What was measured:
cyclin B-Cdc2 = target: T1, cyclin B-Cdc2 (Homo sapiens, UniProt P06493); test: Cyclin B-Cdc2 histone H1 kinase assay; type: biochemical; settings: concentrations up to 20 μM
T1 construct: made in house; host or cells: Sf9 insect cells, baculovirus co-infection; unpurified lysate
T1 sequence (P06493 whole entry): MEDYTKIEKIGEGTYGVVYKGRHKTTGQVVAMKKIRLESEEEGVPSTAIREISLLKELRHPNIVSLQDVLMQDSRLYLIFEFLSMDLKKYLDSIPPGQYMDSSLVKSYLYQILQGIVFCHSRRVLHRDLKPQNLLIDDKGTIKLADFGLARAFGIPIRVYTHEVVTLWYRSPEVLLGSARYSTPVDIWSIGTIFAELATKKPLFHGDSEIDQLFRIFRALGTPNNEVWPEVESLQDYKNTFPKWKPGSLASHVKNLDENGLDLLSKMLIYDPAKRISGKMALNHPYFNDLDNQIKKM
T1 sequence (P14635 whole entry partner): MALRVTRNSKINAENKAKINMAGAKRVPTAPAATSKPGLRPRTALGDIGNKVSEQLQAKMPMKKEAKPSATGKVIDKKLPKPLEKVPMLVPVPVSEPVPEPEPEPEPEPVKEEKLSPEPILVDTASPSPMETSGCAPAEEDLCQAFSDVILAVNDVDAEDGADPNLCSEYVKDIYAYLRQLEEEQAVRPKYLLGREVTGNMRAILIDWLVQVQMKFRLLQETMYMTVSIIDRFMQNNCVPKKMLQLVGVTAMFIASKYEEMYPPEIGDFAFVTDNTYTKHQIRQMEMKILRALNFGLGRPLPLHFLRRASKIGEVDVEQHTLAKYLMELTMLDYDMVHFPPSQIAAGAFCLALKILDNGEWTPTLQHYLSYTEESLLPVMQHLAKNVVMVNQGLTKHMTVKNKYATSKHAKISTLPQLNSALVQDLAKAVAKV
Procedure: The conditions were identical to those described in the Experimental Procedures for cyclin D1-Cdk4 except that histone H1 (0.5 μg/assay) was used as the substrate for cyclin B-Cdc2.

cyclin D1-Cdk4 [1] = target: T2, cyclin D1-Cdk4 (Homo sapiens, UniProt P11802+P24385); test: Cyclin D1-Cdk4 GST-Rb phosphorylation assay (Sf9 insect cell lysate); type: biochemical
T2 construct: made in house; host or cells: Sf9 insect cells, baculovirus co-infection; unpurified lysate
T2 sequence (P11802 whole entry): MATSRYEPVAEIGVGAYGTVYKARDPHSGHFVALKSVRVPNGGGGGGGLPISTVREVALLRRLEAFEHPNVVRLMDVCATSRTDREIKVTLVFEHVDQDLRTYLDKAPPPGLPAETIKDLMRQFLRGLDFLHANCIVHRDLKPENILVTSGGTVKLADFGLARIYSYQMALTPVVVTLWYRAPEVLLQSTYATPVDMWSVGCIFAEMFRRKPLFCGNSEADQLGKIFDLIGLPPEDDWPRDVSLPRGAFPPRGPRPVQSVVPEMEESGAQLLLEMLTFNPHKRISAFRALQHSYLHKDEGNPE
T2 sequence (P24385 whole entry): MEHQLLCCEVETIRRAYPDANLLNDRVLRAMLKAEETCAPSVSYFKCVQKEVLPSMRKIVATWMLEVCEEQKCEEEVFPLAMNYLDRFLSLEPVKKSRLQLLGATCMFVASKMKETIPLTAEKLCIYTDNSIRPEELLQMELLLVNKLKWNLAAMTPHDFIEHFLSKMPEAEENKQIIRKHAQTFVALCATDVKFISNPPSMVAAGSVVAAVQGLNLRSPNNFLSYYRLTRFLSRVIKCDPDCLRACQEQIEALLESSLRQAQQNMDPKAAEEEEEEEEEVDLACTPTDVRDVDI
Procedure: (§1) “x” indicates no addition of peptide.
(§2) Cyclins and CDKs—Cdk4 and cyclin D1, Cdk2 and cyclin E and Cdc2 and cyclin B were co-expressed in Sf9 insect cells infected with the appropriate baculovirus constructs. The cells were harvested two days after infection by low speed centrifugation and the pellet was lysed in an equal volume of 10 mM Hepes, pH 7.4 containing: 10 mM NaCl, 1 mM EDTA, and 0.1 mM phenylmethane sulphonyl fluoride, 2 mM DTT and centrifuged at 14000×g for 15 min. The supernatant was removed, aliquoted and immediately frozen in liquid nitrogen. Thawed lysate was used only once and was never refrozen. Labelled Cdk4 and cyclin D1 were produced by translation in the presence of [^35S] methionine using a rabbit reticulocyte lysate in vitro translation kit (Promega).
(§3) Phosphorylation of GST-Rb—Cdk4 activity was measured using the cyclin D1-Cdk4 containing insect cell lysate described above. Extract (1 μl) was added to a final reaction volume of 10 μl, containing: 50 mM Hepes, pH 7.4, 10 mM MgCl2, 2.5 mM EGTA, 1 mM DTT, 10 mM β-glycerophosphate, 1 mM NaF, 10 mM PKI, 50 μM ATP containing [^32P] ATP (1000 cpm/pMol) and 0.5 μg GST-Rb. […] The samples were analysed by SDS-PAGE on 12% gels followed by auto-radiography and quantification using a Bio-Imager.

cyclin D1-Cdk4 [2] = target: T2, cyclin D1-Cdk4; test: Peptide phosphorylation by cyclin D1-Cdk4; type: biochemical; settings: conditions where 2.4 nMol 32P incorporated per nMol GST-Rb
Procedure: The biotinylated peptides (1 μg) were incubated for 30 min at 30° C. in a final volume of 20 μl containing: 50 mM Hepes, pH 7.4, 10 mM MgCl2, 2.5 mM EGTA, 1 mM DTT, 10 mM β-glycerophosphate, 1 mM NaF, 10 mM PKI, 50 μM ATP containing [^32P]ATP (6000 cpm/pMol) and either 1 μl of cyclin D1-Cdk4 insect cell lysate, 1 μl of uninfected insect cell lysate or 0.02 mU of protein kinase C plus 0.5 mM CaCl2, 100 mg/ml phosphatidyl serine and 20 mg/ml diacylglycerol. The reactions were stopped by heating at 60° C. for 5 min and streptavidin agarose beads were added (10 μl packed cell volume washed with 3×PBS) and incubated with shaking at 4° C. for 30 min. The beads were washed extensively with PBS containing 3% (v/v) Tween-20 and the incorporation of radioactivity into the peptides was determined by Cerenkov counting.

cyclin D1-Cdk4 [3] = target: T3, cyclin D1-Cdk4 (Homo sapiens, UniProt P11802); test: Cyclin D1-Cdk4 GST-Rb phosphorylation assay (Sf9 insect cell lysate); type: biochemical; settings: GST-Rb substrate; read-out: I0.5 for inhibition of Cdk4 activity
T3 construct: made in house; host or cells: Sf9 insect cells, baculovirus co-infection; unpurified lysate
T3 sequence (P11802 whole entry): as the sequence (P11802 whole entry) above
T3 sequence (P24385 whole entry, further chain): as the sequence (P24385 whole entry) above
Procedure: as §1, §2, §3

cyclin D1-Cdk4 [4] = target: T2, cyclin D1-Cdk4; test: Relief of p21WAF1 inhibition in cyclin D1-Cdk4 GST-Rb phosphorylation assay; type: biochemical; settings: peptide 1, 5, 17 & 34 μM, fixed concentration of p21WAF1
HaCaT cells = test: Cell cycle measurements by BrdU/FACS in HaCaT cells; type: cell-based, human; settings: for G1-, S-phase distribution / G1 arrest: proliferating HaCaT cells, 24 hours, Peptide-I and Peptide-III 25 μM, Peptide-II 50 μM
Procedure: The peptides were added to proliferating HaCaT cells, grown in DMEM plus 10% FCS. The cells were incubated for 24 hours pulse labelled during with 15 μM BrdU, fixed and then analysed by FACS.
Carrier linked peptides were designed for delivery into proliferating HaCaT cells (see FIG. 9). Cells were seeded on 30mm culture plates and grown to 50% confluency in Dulbecco's modified Eagle's medium (DMEM) supplemented with 10% (v/v) foetal calf serum (FCS). Peptides were added to the medium and the cells were incubated for 24 hours. During the last 30 minutes of the incubation the cells were pulse labelled in the presence of 15 μM BrdU. The cells were trypsinised, fixed in absolute alcohol and prepared for FACS analysis using a single laser flow cytometer (Becton-Dickinson, FACScan) as previously described (Renzing et al, 1996).

[5] = tested on: pRb phosphorylation in HaCaT cells; test: pRb phosphorylation in HaCaT cells (Western blot); type: cell-based, human; settings: serum-starved HaCaT cells released with 10% FCS, 24 hour time course; Peptide-I 25 μM, Peptide-II 50 μM
Excerpt: Samples were taken at the times shown and analysed by SDS-PAGE/Western blot stained for pRb. pRb represents hypophosphorylated Rb protein and pRb* refers to hyperphosphorylated Rb protein. It should be pointed out that equal amounts of total protein were loaded per lane and that the antibody appears to preferentially recognise phosphorylated forms of the Rb protein. Peptide I corresponds with SEQ ID NO:24; peptide II corresponds with SEQ ID NO:25; and peptide III corresponds with SEQ ID NO:26.
HaCaT cells were seeded on 30 mm culture plates at 25% confluency in DMEM with 10% FCS. The FCS was withdrawn after 24 hours and the cells were starved for 72 hours. At the end of this period the medium was supplemented with 10% FCS and carrier linked peptides. Samples were taken over a 24 hour time course and the cells were lysed in RIPA buffer (50 mM Tris-HCl, pH 8.0, containing 150 mM NaCl, 1.0% (v/v) NP-40, 0.5% (w/v) DOC, 0.1% (w/v) SDS, 1 mM PMSF, 0.1 mg/ml aprotinin and 0.5 mg/ml leupeptin) for 30 minutes at 4° C. The phosphorylation statues of pRb was determined by Western blot analysis, as previously described (Fahraeus et al, 1996) except that the blot was probed with a pRb polyclonal antibody (C-15, Santa Cruz).

Soas2 cells = test: Cell cycle arrest in Rb negative cells; type: cell-based
[6] = target: cyclin D1-Cdk4 complex co-expressed in Sf9 insect cells (lysate) (UniProt P11802); test: cell-based or functional assay
Chain of cyclin D1-Cdk4 complex co-expressed in Sf9 insect cells (lysate) (UniProt P11802) (P11802 whole entry, chain 1 of 2): as the sequence (P11802 whole entry) above
Chain of cyclin D1-Cdk4 complex co-expressed in Sf9 insect cells (lysate) (UniProt P11802) (P24385 whole entry, chain 2 of 2, further chain): as the sequence (P24385 whole entry) above

[7] = target: T4, Cdk4 labelled with [35S]methionine, translated in rabbit reticulocyte lysate (human, UniProt P11802 1-303, [35S]methionine label); test: peptide precipitation of 35S-labelled protein from reticulocyte lysate, SDS-PAGE and autoradiography
T4 construct: also called 35S-labelled Cdk4
T4 sequence (P11802 whole entry): as the sequence (P11802 whole entry) above
Procedure: (§4) After extensive washing bound proteins were analysed using SDS-PAGE followed by autoradiography. The bands were quantified using a Bio-Imager and Whole Band Analysis Software (Millipore).
(§5) Peptide (1.5 μg) was diluted in 100 μl of PBS and incubated with 10 μl of packed streptavidin-agarose beads (Sigma) for 1 h at room temperature. Unbound peptide was removed by extensive washing with PBS and the beads, plus bound peptide, were incubated for 1 h at 4° C. with reticulocyte lysate containing either Cdk4 or cyclin D1 labelled with [^35S] methionine. […] The bound protein was analysed by SDS-PAGE followed by auto-radiography and quantification of the ^35S-labelled protein using a Bio-Imager and Whole Band Analysis Software (Millipore).

[8] = target: cyclin D1-Cdk4 complex co-expressed in Sf9 insect cells (lysate) (UniProt P11802 1-303; P24385 1-295); test: cell-based or functional assay
Chain of cyclin D1-Cdk4 complex co-expressed in Sf9 insect cells (lysate) (UniProt P11802 1-303; P24385 1-295) (P11802 whole entry, chain 1 of 2): as the sequence (P11802 whole entry) above
Chain of cyclin D1-Cdk4 complex co-expressed in Sf9 insect cells (lysate) (UniProt P11802 1-303; P24385 1-295) (P24385 whole entry, chain 2 of 2): as the sequence (P24385 whole entry) above

[9] = target: T5, cyclin D1 labelled with [35S]methionine, translated in rabbit reticulocyte lysate (human, UniProt P24385 1-295, [35S]methionine label); test: peptide precipitation of 35S-labelled protein from reticulocyte lysate, SDS-PAGE and autoradiography
T5 construct: also called 35S-labelled cyclin D1
T5 sequence (P24385 whole entry): as above
Procedure: as §4, §5

CC(C)C[C@H](NC(=O)[C@H](CCCNC(=N)N)NC(=O)[C@H](CCCNC(=N)N)NC(=O)[C@H](CS)NC(=O)[C@H](C)NC(=O)[C@@H](N)CCCCN)C(=O)N[C@@H](Cc1ccccc1)C(=O)NCC(=O)N1CCC[C@H]1C(=O)N[C@H](C(=O)N[C@@H](CC(=O)O)C(=O)N[C@@H](CO)C(=O)N[C@@H](CCC(=O)O)C(=O)N[C@@H](CCC(N)=O)C(=O)N[C@@H](CC(C)C)C(=O)N[C@@H](CO)C(=O)N[C@@H](CCCNC(=N)N)C(=O)N[C@@H](CC(=O)O)C(=O)N[C@@H](CS)C(=O)N[C@@H](CC(=O)O)C(=O)O)C(C)C [peptide 2] (H-KACRRLFGPVDSEQLSRDCD-OH; C-terminus assumed)
effect on Cdc2-cyclin B histone H1 kinase activity (cyclin B-Cdc2): neither peptide 2 nor peptide 10 had a significant effect
inhibition at 17 µM (cyclin D1-Cdk4 [1]; peptide at 17 μM, read-out: inhibition of kinase activity): ~80%
substrate for cyclin D1-Cdk4 (cyclin D1-Cdk4 [2]): neither peptide 2 nor peptide 10 were substrates for cyclin D1-Cdk4

CC[C@H](C)[C@H](NC(=O)[C@H](CC(C)C)NC(=O)[C@H](CCCNC(=N)N)NC(=O)[C@H](CCCNC(=N)N)NC(=O)[C@@H](N)CCCCN)C(=O)N[C@@H](Cc1ccccc1)C(=O)N[C@@H](CO)C(=O)N[C@@H](CCCCN)C(=O)O (H-KRRLIFSK-OH; C-terminus assumed)
IC50 (cyclin D1-Cdk4 [3]): ~100 µM
cyclin D1-Cdk4 inhibitory activity (cyclin D1-Cdk4 [1]): completely inhibit cyclin D1-Cdk4 activity
fold higher I0.5 than full length peptide (cyclin D1-Cdk4 [1]; versus full length peptide 10): approximately 1000 fold

peptide 4: residues 46-65 of p21WAF1, SEQ ID NO:4, Biotin-SGSG spacer (RERWNFDFVTETPLEGDFAW; not fully specified (N-terminus, C-terminus))
cyclin D1-Cdk4 inhibitory activity (cyclin D1-Cdk4 [1]): no detectable activity; also recorded: no Cdk4 inhibitory activity
cyclin D1-Cdk4 inhibitory activity (cyclin D1-Cdk4 [1]; concentrations of up to 35 μM): no inhibitory activity

R-A mutant: peptide 10 with R-A at residue 15, equivalent to residue 155 of the full length protein (KRRQTSMTDFYHSKARLIFSSGSG)
block of inhibitory activity of full length p21WAF1 (cyclin D1-Cdk4 [4]): able to block the inhibitory activity of full length p21^WAF1

Peptide-II: truncated peptide 10 coupled to carrier peptide, SEQ ID NO:25 (KRRLIFSKRQIKIWFQNRRMKWKK)
fold lower I0.5 in vitro than free peptide (cyclin D1-Cdk4 [1]; carrier linked versus free peptide, data not shown): approximately 50 fold
G1-, S-phase distribution / G1 arrest (HaCaT cells): effectively promoted a G1-phase arrest
fold less active as growth suppressor than Peptide-I (HaCaT cells; versus Peptide-I): 2 fold
phosphorylation status of pRb [5]: totally prevented the phosphorylation of pRb

Peptide-I: peptide 10 with M to A at position 7 synthesised onto Antennapedia carrier peptide, SEQ ID NO:24 (KRRQTSATDFYHSKRRLIFSRQIKIWFQNRRMKWKK)
G1-, S-phase distribution / G1 arrest (HaCaT cells): number of cells entering S-phase in the presence of Peptide-I was dramatically reduced and the G1 population showed a concomitant increase
cell cycle arrest / G1 population in pRb negative cells (Soas2 cells): increase in the population of cells in G1 phase
phosphorylation status of pRb [5]: pRb remained hypophosphorylated

Peptide-III: carrier linked control peptide 10 lacking the last 4 amino acids (LIFS), SEQ ID NO:26 (RQTSMTDFYHSKRRRQIKIWFQNRRMKWKK)
G1-, S-phase distribution / G1 arrest (HaCaT cells): no detectable effect on the ability of HaCaT cells to enter S-phase

8: synthetic peptide of the p21WAF1 library, SEQ ID NO:8 (AEEDHVDLSLSCTLVPRSGE) [compound 8]
cyclin D1-Cdk4 inhibitory activity (cyclin D1-Cdk4 [1]): only weak inhibition
inhibition of cyclin D1-Cdk4 activity (cyclin D1-Cdk4 [1]; peptide at 17 μM): inhibited cyclin D1-Cdk4 activity

p16INK4 derived peptide (Fahraeus et al., 1996)
I0.5 for inhibition of cyclin D1-Cdk4 activity [6]: 16.3 µM

peptide 11: extreme C-terminal peptide of p21WAF1, SEQ ID NO:11 (TSMTDFYHSKRRLIFSKRKP)
cyclin D1-Cdk4 inhibitory activity (cyclin D1-Cdk4 [1]): potent inhibitor of Cdk4 activity
inhibition of cyclin D1-Cdk4 activity (cyclin D1-Cdk4 [1]; peptide at 17 μM): completely inhibited enzyme activity

B1: peptide 2 (residues 16-35 of p21^WAF1) (peptide)
peptide: H-KACRRLFGPVDSEQLSRDCDSGSG
modifications: not fully specified (C-terminus); cysteine pairing not given here; also: biotin on C-terminal SGSG spacer, order not given here
notes: Synthetic biotinylated peptide, captured on streptavidin-agarose in the precipitation assay; The order of biotin and SGSG at the C-terminus is not spelled out
binding result [7]: no binding
I0.5 for inhibition of Cdk4 activity (GST-Rb phosphorylation) [8]: 2 µM

KRRQTSMTDFYHSKRRLIFSSGSG (not fully specified; Biotin-SGSG spacer at the C-terminus; free N-terminus) [peptide 10 (residues 141-160 of p21^WAF1)]
I0.5 for inhibition of Cdk4 activity (GST-Rb phosphorylation) [8]: 0.1 µM

B2: peptide 10 mutant with R-A at residue 15 of peptide 10 (residue 155 of the full length protein) (peptide)
peptide: H-KRRQTSMTDFYHSKARLIFSSGSG
modifications: not fully specified (C-terminus); also: biotin on C-terminal SGSG spacer, order not given here
loss of inhibitory activity against cyclin D1-Cdk4 relative to peptide 10 [8]: > 60%

B3: peptide 11 (extreme C-terminal peptide of p21^WAF1) (peptide)
peptide: H-TSMTDFYHSKRRLIFSKRKPSGSG
modifications: not fully specified (C-terminus); also: biotin on C-terminal SGSG spacer, order not given here
I0.5 for inhibition of Cdk4 activity (GST-Rb phosphorylation) [8]: 0.1 µM

KRRLIFSKRQIKIWFQNRRMKWKK [Peptide-II (truncated peptide 10 linked to carrier peptide)]
fold decrease in fold I0.5 in vitro against the free truncated peptide 10 [8]: ~50 fold

KRRLIFSK [untagged eight amino acid peptide KRRLIFSK]
fold I0.5 against the full length peptide 10 [8]: ~1000 fold

B4: peptide 4 (residues 46-65 of p21^WAF1) (peptide)
peptide: H-RERWNFDFVTETPLEGDFAWSGSG
modifications: not fully specified (C-terminus); also: biotin on C-terminal SGSG spacer, order not given here
notes: Synthetic biotinylated peptide
binding result [9]: no binding

Reference: patent US6962792B1, “Methods and means for inhibition of Cdk4 activity” (Cyclacel Limited, priority 1996, dated 2005)
